± gives the standard error. For some assays here: Fewer inactive variants are shown than the library holds.
B1: glmS ribozyme (parent)
chain: AUAAAAGCGCCAGAACUACAGAAAUGUAGUUGACGAGGAGGAGGUUUAUCGAAUUUUCGGCGGAUGCCUCCAAA

What was measured:
Details in all cases: with glucosamine-6-phosphate
[1] = variants of: B1; assay: kcat; higher = faster cleavage; RNA array
Method in brief: (§1)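 Tiles of sequenced MiSeq chips were imaged over ~14 h at 37 °C. On them, barcoded ribozyme variants had been transcribed in situ by E. coli RNA polymerase and were tracked via a hybridised Cy3 probe while glucosamine-6-phosphate (40 μM to 10 mM) in HEPES/KCl/Mg(OAc)2 buffer flowed in. Per-tile medians, normalised to baseline and to non-cleaving reference variants, were fit to one- or two-exponential decays for kobs, and weighted Michaelis–Menten fits gave kcat and KM.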

[2] = variants of: B1; assay: KM; higher = weaker cofactor use; RNA array
Method in brief: as §1

[3] = variants of: B1; assay: self-cleavage kobs at 640 uM GlcN6P; higher = faster cleavage; RNA array
Method in brief: as §1

[4] = variants of: B1; assay: self-cleavage kobs at 2500 uM GlcN6P; higher = faster cleavage; RNA array
Method in brief: as §1

[5] = variants of: B1; assay: self-cleavage kobs at 10000 uM GlcN6P; higher = faster cleavage; RNA array
Method in brief: as §1

[6] = variants of: B1; assay: self-cleavage kobs at 160 uM GlcN6P; higher = faster cleavage; RNA array
Method in brief: as §1

[7] = variants of: B1; assay: self-cleavage kobs at 40 uM GlcN6P; higher = faster cleavage; RNA array
Method in brief: as §1

A48C U55A
kcat [1]: 0.000411 ± 0.0001 s⁻¹ | KM [2]: 2110 ± 920 µM | self-cleavage kobs at 640 uM GlcN6P [3]: 8.73e-05 ± 1.8e-05 s⁻¹ | self-cleavage kobs at 2500 uM GlcN6P [4]: 0.000276 ± 4.6e-05 s⁻¹ | self-cleavage kobs at 10000 uM GlcN6P [5]: 0.000272 ± 8.7e-05 s⁻¹

A48C U55C
kcat [1]: 0.000419 ± 0.00015 s⁻¹ | self-cleavage kobs at 640 uM GlcN6P [3]: 6.73e-05 ± 1.2e-05 s⁻¹ | self-cleavage kobs at 2500 uM GlcN6P [4]: 0.000327 ± 4.9e-05 s⁻¹ | self-cleavage kobs at 10000 uM GlcN6P [5]: 0.00029 ± 4.9e-05 s⁻¹

A48G C71A
kcat [1]: 2.26e-05 ± 4.7e-06 s⁻¹ | self-cleavage kobs at 2500 uM GlcN6P [4]: 2.93e-05 ± 1.3e-05 s⁻¹

A48G C71U
kcat [1]: 8.1e-05 ± 1.3e-05 s⁻¹ | self-cleavage kobs at 640 uM GlcN6P [3]: 4.86e-05 ± 8.2e-06 s⁻¹ | self-cleavage kobs at 2500 uM GlcN6P [4]: 0.000101 ± 1.1e-05 s⁻¹ | self-cleavage kobs at 10000 uM GlcN6P [5]: 7.03e-05 ± 6.3e-06 s⁻¹

A48G U65A
kcat [1]: < 1e-05 s⁻¹ | self-cleavage kobs at 160 uM GlcN6P [6]: < 1e-05 s⁻¹

A48G U65G
kcat [1]: 8.76e-05 ± 3.5e-05 s⁻¹ | self-cleavage kobs at 40 uM GlcN6P [7]: < 1e-05 s⁻¹ | self-cleavage kobs at 160 uM GlcN6P [6]: < 1e-05 s⁻¹ | self-cleavage kobs at 10000 uM GlcN6P [5]: 3.81e-05 ± 1.3e-05 s⁻¹

U49C C58G
kcat [1]: < 1e-05 s⁻¹ | self-cleavage kobs at 10000 uM GlcN6P [5]: < 1e-05 s⁻¹

U49C C67G
kcat [1]: < 1e-05 s⁻¹ | self-cleavage kobs at 40 uM GlcN6P [7]: < 1e-05 s⁻¹ | self-cleavage kobs at 160 uM GlcN6P [6]: < 1e-05 s⁻¹ | self-cleavage kobs at 10000 uM GlcN6P [5]: < 1e-05 s⁻¹

U47C C50U
kcat [1]: 4.46e-05 ± 3.5e-07 s⁻¹ | KM [2]: 1670 ± 52 µM | self-cleavage kobs at 2500 uM GlcN6P [4]: 2.69e-05 ± 1.3e-05 s⁻¹ | self-cleavage kobs at 10000 uM GlcN6P [5]: 3.82e-05 ± 1.1e-05 s⁻¹

U47C C50A
kcat [1]: 3.31e-05 ± 5.7e-06 s⁻¹ | KM [2]: 3090 ± 1500 µM

A48C C67A
kcat [1]: 0.000168 ± 1e-05 s⁻¹ | KM [2]: 1800 ± 310 µM | self-cleavage kobs at 640 uM GlcN6P [3]: 4.27e-05 ± 9.9e-06 s⁻¹ | self-cleavage kobs at 2500 uM GlcN6P [4]: 0.000104 ± 1.4e-05 s⁻¹ | self-cleavage kobs at 10000 uM GlcN6P [5]: 0.00014 ± 1.4e-05 s⁻¹

U47G C71A
kcat [1]: 0.00107 ± 0.00043 s⁻¹ | self-cleavage kobs at 40 uM GlcN6P [7]: 5.64e-05 ± 1.4e-05 s⁻¹ | self-cleavage kobs at 640 uM GlcN6P [3]: 0.000443 ± 0.0001 s⁻¹ | self-cleavage kobs at 2500 uM GlcN6P [4]: 0.000556 ± 0.0001 s⁻¹ | self-cleavage kobs at 10000 uM GlcN6P [5]: 0.00146 ± 0.0002 s⁻¹

U47G U56C A64G
kcat [1]: 0.000113 ± 1.2e-05 s⁻¹ | KM [2]: 1500 ± 480 µM | self-cleavage kobs at 640 uM GlcN6P [3]: 2.82e-05 ± 1.4e-05 s⁻¹ | self-cleavage kobs at 2500 uM GlcN6P [4]: 7.42e-05 ± 1.5e-05 s⁻¹ | self-cleavage kobs at 10000 uM GlcN6P [5]: 9.62e-05 ± 1.7e-05 s⁻¹

A48G U54C
kcat [1]: 0.000123 ± 1.5e-05 s⁻¹ | KM [2]: 1310 ± 500 µM | self-cleavage kobs at 640 uM GlcN6P [3]: 3.59e-05 ± 1.1e-05 s⁻¹ | self-cleavage kobs at 2500 uM GlcN6P [4]: 0.000101 ± 1.8e-05 s⁻¹ | self-cleavage kobs at 10000 uM GlcN6P [5]: 0.000104 ± 1.3e-05 s⁻¹

U49A C70G
kcat [1]: 1.43e-05 ± 3.7e-06 s⁻¹

U49A C70U
kcat [1]: 2.22e-05 ± 1.1e-05 s⁻¹ | self-cleavage kobs at 2500 uM GlcN6P [4]: 3.89e-05 ± 1.9e-05 s⁻¹

U47C A52U
kcat [1]: 0.00034 ± 5.8e-05 s⁻¹ | KM [2]: 3930 ± 1200 µM | self-cleavage kobs at 640 uM GlcN6P [3]: 3.84e-05 ± 1.6e-05 s⁻¹ | self-cleavage kobs at 2500 uM GlcN6P [4]: 0.000145 ± 2.3e-05 s⁻¹ | self-cleavage kobs at 10000 uM GlcN6P [5]: 0.000231 ± 4.7e-05 s⁻¹

A48U G66A
kcat [1]: 0.000466 ± 2.8e-05 s⁻¹ | KM [2]: 7160 ± 740 µM | self-cleavage kobs at 2500 uM GlcN6P [4]: 0.000123 ± 2.3e-05 s⁻¹ | self-cleavage kobs at 10000 uM GlcN6P [5]: 0.00027 ± 4.1e-05 s⁻¹

U47C C70A
kcat [1]: 0.000334 ± 9.1e-05 s⁻¹ | self-cleavage kobs at 640 uM GlcN6P [3]: 0.000119 ± 2.1e-05 s⁻¹ | self-cleavage kobs at 2500 uM GlcN6P [4]: 0.000426 ± 9.7e-05 s⁻¹ | self-cleavage kobs at 10000 uM GlcN6P [5]: 0.000264 ± 4.8e-05 s⁻¹

A48G C50A G63A
kcat [1]: < 1e-05 s⁻¹ | self-cleavage kobs at 160 uM GlcN6P [6]: < 1e-05 s⁻¹ | self-cleavage kobs at 10000 uM GlcN6P [5]: < 1e-05 s⁻¹

U47C A64U
kcat [1]: 0.000108 ± 8.5e-06 s⁻¹ | KM [2]: 363 ± 170 µM | self-cleavage kobs at 640 uM GlcN6P [3]: 7.89e-05 ± 1.8e-05 s⁻¹ | self-cleavage kobs at 2500 uM GlcN6P [4]: 9.46e-05 ± 2.2e-05 s⁻¹ | self-cleavage kobs at 10000 uM GlcN6P [5]: 0.000102 ± 1.2e-05 s⁻¹

U47C A64G
kcat [1]: 0.00525 ± 0.0013 s⁻¹ | KM [2]: 1890 ± 650 µM | self-cleavage kobs at 40 uM GlcN6P [7]: 0.000131 ± 1.7e-05 s⁻¹ | self-cleavage kobs at 160 uM GlcN6P [6]: 0.000324 ± 9e-05 s⁻¹ | self-cleavage kobs at 640 uM GlcN6P [3]: 0.00115 ± 0.00027 s⁻¹ | self-cleavage kobs at 2500 uM GlcN6P [4]: 0.0019 ± 0.00068 s⁻¹ | self-cleavage kobs at 10000 uM GlcN6P [5]: 0.00499 ± 0.00066 s⁻¹

U47C C58U
kcat [1]: 0.000109 ± 7.3e-06 s⁻¹ | self-cleavage kobs at 10000 uM GlcN6P [5]: 4.92e-05 ± 8.1e-06 s⁻¹

U47C C58A
kcat [1]: 0.00036 ± 6e-05 s⁻¹ | KM [2]: 4240 ± 1300 µM | self-cleavage kobs at 640 uM GlcN6P [3]: 3.95e-05 ± 1.1e-05 s⁻¹ | self-cleavage kobs at 2500 uM GlcN6P [4]: 0.00016 ± 2.7e-05 s⁻¹ | self-cleavage kobs at 10000 uM GlcN6P [5]: 0.000244 ± 3.3e-05 s⁻¹

A48U U56C
kcat [1]: 6.46e-05 ± 1e-05 s⁻¹ | self-cleavage kobs at 160 uM GlcN6P [6]: < 1e-05 s⁻¹ | self-cleavage kobs at 2500 uM GlcN6P [4]: 4.13e-05 ± 1.7e-05 s⁻¹ | self-cleavage kobs at 10000 uM GlcN6P [5]: 5.09e-05 ± 7.6e-06 s⁻¹

A48U U56G
kcat [1]: 0.000239 ± 3.7e-06 s⁻¹ | KM [2]: 1590 ± 58 µM | self-cleavage kobs at 640 uM GlcN6P [3]: 6.91e-05 ± 2e-05 s⁻¹ | self-cleavage kobs at 10000 uM GlcN6P [5]: 0.000206 ± 3.9e-05 s⁻¹

U47G C70A
kcat [1]: 0.000101 ± 9.5e-06 s⁻¹ | self-cleavage kobs at 40 uM GlcN6P [7]: 3.74e-05 ± 1.6e-05 s⁻¹ | self-cleavage kobs at 160 uM GlcN6P [6]: 0.000107 ± 1.5e-05 s⁻¹ | self-cleavage kobs at 640 uM GlcN6P [3]: 9.99e-05 ± 1.3e-05 s⁻¹ | self-cleavage kobs at 2500 uM GlcN6P [4]: 0.000111 ± 1.3e-05 s⁻¹ | self-cleavage kobs at 10000 uM GlcN6P [5]: 8.94e-05 ± 8.5e-06 s⁻¹

U47G A53G U57C C68U
kcat [1]: 9.73e-05 ± 3.2e-05 s⁻¹ | self-cleavage kobs at 640 uM GlcN6P [3]: 3.09e-05 ± 1.2e-05 s⁻¹ | self-cleavage kobs at 2500 uM GlcN6P [4]: 3.84e-05 ± 1.3e-05 s⁻¹ | self-cleavage kobs at 10000 uM GlcN6P [5]: 8.44e-05 ± 1.8e-05 s⁻¹

U47C U65A
kcat [1]: 0.00113 ± 0.00024 s⁻¹ | KM [2]: 930 ± 300 µM | self-cleavage kobs at 40 uM GlcN6P [7]: 6.54e-05 ± 1.7e-05 s⁻¹ | self-cleavage kobs at 160 uM GlcN6P [6]: 0.000154 ± 2.2e-05 s⁻¹ | self-cleavage kobs at 640 uM GlcN6P [3]: 0.000443 ± 9.4e-05 s⁻¹ | self-cleavage kobs at 2500 uM GlcN6P [4]: 0.00121 ± 0.00023 s⁻¹ | self-cleavage kobs at 10000 uM GlcN6P [5]: 0.00092 ± 0.00017 s⁻¹

U47C U65G
kcat [1]: 0.00435 ± 0.0005 s⁻¹ | KM [2]: 3840 ± 610 µM | self-cleavage kobs at 40 uM GlcN6P [7]: 4.89e-05 ± 1.1e-05 s⁻¹ | self-cleavage kobs at 640 uM GlcN6P [3]: 0.000565 ± 0.00011 s⁻¹ | self-cleavage kobs at 2500 uM GlcN6P [4]: 0.00189 ± 0.00047 s⁻¹ | self-cleavage kobs at 10000 uM GlcN6P [5]: 0.00312 ± 0.0006 s⁻¹

U47C A53U
kcat [1]: 0.00157 ± 0.00025 s⁻¹ | KM [2]: 1150 ± 280 µM | self-cleavage kobs at 40 uM GlcN6P [7]: 4.38e-05 ± 9.7e-06 s⁻¹ | self-cleavage kobs at 160 uM GlcN6P [6]: 0.000209 ± 4.6e-05 s⁻¹ | self-cleavage kobs at 640 uM GlcN6P [3]: 0.000671 ± 0.00012 s⁻¹ | self-cleavage kobs at 2500 uM GlcN6P [4]: 0.0012 ± 0.00023 s⁻¹ | self-cleavage kobs at 10000 uM GlcN6P [5]: 0.00124 ± 0.00025 s⁻¹

U47G A53G
kcat [1]: 0.00632 ± 0.0012 s⁻¹ | KM [2]: 804 ± 250 µM | self-cleavage kobs at 40 uM GlcN6P [7]: 0.000319 ± 4.7e-05 s⁻¹ | self-cleavage kobs at 160 uM GlcN6P [6]: 0.000975 ± 0.00019 s⁻¹ | self-cleavage kobs at 640 uM GlcN6P [3]: 0.00317 ± 0.00055 s⁻¹ | self-cleavage kobs at 2500 uM GlcN6P [4]: 0.00362 ± 0.00064 s⁻¹ | self-cleavage kobs at 10000 uM GlcN6P [5]: 0.0074 ± 0.00097 s⁻¹

A48G U69C
kcat [1]: 9.33e-05 ± 2.9e-05 s⁻¹ | self-cleavage kobs at 2500 uM GlcN6P [4]: 9.27e-05 ± 3.5e-05 s⁻¹ | self-cleavage kobs at 10000 uM GlcN6P [5]: 7.34e-05 ± 2.5e-05 s⁻¹

A48G C70G
kcat [1]: 6.2e-05 ± 1.1e-05 s⁻¹ | self-cleavage kobs at 640 uM GlcN6P [3]: 8.57e-05 ± 1.8e-05 s⁻¹ | self-cleavage kobs at 2500 uM GlcN6P [4]: 7.26e-05 ± 1.6e-05 s⁻¹ | self-cleavage kobs at 10000 uM GlcN6P [5]: 5.25e-05 ± 9.4e-06 s⁻¹

From the supplement of paper PMC7125110
